Reference: the supplement of paper PMC9732359
± gives the uncertainty stated by the source.

Test: protein stability index of a GFP-peptide fusion (yeast GPS) (PSI 1-4); higher = more stable; sorted into four equal gates, so the index is relative within each strain
Method in brief: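 Plasmids isolated from each sorting gate were PCR-amplified and Illumina-sequenced, and barcodes assigned the reads to strains. The gates, four of equal size, were set by GFP/Cherry fluorescence ratio on mid-log cultures in leucine-free medium. These cultures were yeast carrying a pooled library of tiled 17-residue yeast protein peptides fused downstream of GFP on a plasmid that also expresses Cherry. The protein stability index is the sum of every gate's read frequency times its gate number.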

Sequence | protein stability index (doa10∆) | protein stability index (pdr5∆) | protein stability index (san1∆) | protein stability index (ubr1∆)
MVGLASGNDSMAGKVLI [BRR2] | 3.24 ± 0.1 | 3.4 ± 0.092 | 3.21 ± 0.091 | 3.47 ± 0.058
MVNIGLHNLNEYQIVYY [RGR1] | 1.65 ± 0.14 | 2.56 ± 0.1 | 2.11 ± 0.11 | 1.43 ± 0.27
MVVQKYKLSTVVLRLYL [GRR1] | 1.66 ± 0.069 | 1.58 ± 0.049 | 1.38 ± 0.081 | 1.64 ± 0.068
MWSVARAGQRGYHSRTS [RPL3] | 2.86 ± 0.11 | 3.14 ± 0.091 | 3.16 ± 0.069 | 3.11 ± 0.095
NAFRKEELLLKDLEIRK [GAL11] |  | 3.09 ± 0.098 | 3.18 ± 0.079 | 3.03 ± 0.13
NAGPNSNIPNLLRNLES [YDL088C/ASM4] | 2.35 ± 0.043 | 1.96 ± 0.043 | 2.23 ± 0.073 | 2.46 ± 0.031
NANDETTAVEDEDDDLD [RPB4] | 3.47 ± 0.1 | 3.13 ± 0.1 | 3.25 ± 0.093 | 3.25 ± 0.092
NATLQALYRVNDLRDMI [UBP6] | 2.74 ± 0.096 | 2.95 ± 0.093 | 3.03 ± 0.062 | 3.05 ± 0.075
NAVISHANAAAVYFADT [SIN4] | 2.03 ± 0.049 | 2.29 ± 0.047 | 2.06 ± 0.051 | 2.3 ± 0.034
NAVLGLGDMAVCFNNLV [YCS4] | 2.71 ± 0.097 | 3.32 ± 0.11 | 2.61 ± 0.098 | 2.68 ± 0.093
NDEGVWDLVDERTKQRT [PRP8] | 3.19 ± 0.12 | 3.37 ± 0.13 | 3.35 ± 0.13 | 3.26 ± 0.12
NDIPQTESPLKTVDSSI [SSN2] | 2.99 ± 0.071 | 3.01 ± 0.055 | 2.81 ± 0.061 | 3.03 ± 0.032
NDLIVNYEDLATTQAAS [BRN1] | 2.98 ± 0.07 | 3.09 ± 0.087 | 3.34 ± 0.046 | 3.25 ± 0.061
NDNNSPHTPVTRKGYIP [YLR018C/POM34] | 3.1 ± 0.081 | 2.88 ± 0.073 | 2.85 ± 0.078 | 3.01 ± 0.055
NDQDMFTIVSLVQLKKF [YML103C/NUP188] | 2.18 ± 0.12 | 2.84 ± 0.11 | 1.93 ± 0.17 | 2.04 ± 0.14
NDQVEKDAEDETSSDGS [RPN1] | 2.63 ± 0.15 | 2.42 ± 0.096 | 2.04 ± 0.17 | 2.59 ± 0.13
NDSNPSFSFSIPSKNTP [YLR335W/NUP2] | 2.42 ± 0.048 | 2.13 ± 0.04 | 2.58 ± 0.046 | 2.64 ± 0.047
NDTLPDEISPELLSKYK [SNU114] | 2.9 ± 0.067 | 2.8 ± 0.072 | 3.03 ± 0.064 | 2.86 ± 0.075
NDYLEKHSVTEYIFEAH [CDC53] |  | 2.79 ± 0.12 | 3.12 ± 0.094 | 3.17 ± 0.1
NEAALVVNITHHELVPK [RPB5] | 2.93 ± 0.09 | 2.71 ± 0.06 | 3.14 ± 0.062 | 2.88 ± 0.081
NECQRLQNIVMDCTKEE [YIL149C/MLP2] | 2.61 ± 0.093 | 3.47 ± 0.11 | 3.66 ± 0.2 | 3.4 ± 0.12
NEDDLTVKLTEIVWTSS [RPO31] | 2.89 ± 0.093 | 3.04 ± 0.09 | 3.01 ± 0.074 | 3.14 ± 0.059
NEEAEARRLKNRAARDR [RPL19A] | 3.16 ± 0.13 | 3.32 ± 0.087 | 2.89 ± 0.19 | 3.33 ± 0.062
NEHSTSYTFRSEKGLLS [FAS1] | 2.6 ± 0.047 | 2.36 ± 0.054 | 2.7 ± 0.042 | 2.46 ± 0.033
NEKKTETNAKPFSFSSA [YLR335W/NUP2] | 3.32 ± 0.11 | 3.28 ± 0.088 | 3.33 ± 0.041 | 3.36 ± 0.079
NEKLADLGLEKEFQSVD [RPC53] |  |  | 2 ± 0.17 | 

Sequence | protein stability index (doa10∆) | protein stability index (pdr5∆) | protein stability index (san1∆) | protein stability index (ubr1∆)
NEKRYATASAIAATAVA [RPL4A] | 2.29 ± 0.087 | 1.53 ± 0.056 | 1.74 ± 0.14 | 1.5 ± 0.066
NEKVAVMRNTYNTRKNA [GAL11] | 2.76 ± 0.14 | 3.14 ± 0.06 | 2.18 ± 0.072 | 2.37 ± 0.09
NELLEMVGLASGNDSMA [BRR2] | 2.59 ± 0.094 | 2.1 ± 0.072 | 3.11 ± 0.077 | 2.32 ± 0.057
NELLKCKDDVQLQKILE [MTW1] | 2.97 ± 0.057 | 3.04 ± 0.051 | 3.05 ± 0.035 | 3.04 ± 0.037
NEPAARLGSEADAKAFL [FAS2] | 3.45 ± 0.065 | 3.42 ± 0.058 | 3.35 ± 0.042 | 3.31 ± 0.077
NEPTQKDEEETEYFENK [DSN1] | 3.58 ± 0.27 | 3.54 ± 0.23 | 2.71 ± 0.29 | 3.12 ± 0.23
NERLEINQEKPVKLDEN [SIR4] | 3.19 ± 0.17 | 3.05 ± 0.12 | 3.44 ± 0.086 | 3.3 ± 0.12
NESLIPLINLALIDTEF [YML103C/NUP188] | 2.51 ± 0.11 | 1.9 ± 0.088 | 1.32 ± 0.15 | 2.1 ± 0.12
NESSLALEFVSLLLSSV [SRB4] | 1.18 ± 0.045 | 1.33 ± 0.048 | 1.53 ± 0.09 | 1.6 ± 0.05
NESSTFLKLVLSESPVD [SIN4] | 2.1 ± 0.041 | 1.95 ± 0.052 | 2.05 ± 0.073 | 2.02 ± 0.046
NETKKRNFLETVELQVG [RPL1A] | 2.96 ± 0.24 | 2.72 ± 0.23 |  | 
NETNDKKRNPSKQNGSK [PRP28] | 3.21 ± 0.096 | 3.15 ± 0.066 | 3.02 ± 0.051 | 3.23 ± 0.039
NFEKPKNSSQLLNEWSH [RPN5] | 2.83 ± 0.087 | 3.11 ± 0.078 | 2.88 ± 0.063 | 3.12 ± 0.087
NFESISARSSVHESLVT [SRB8] | 2.49 ± 0.052 | 2.1 ± 0.039 | 2.17 ± 0.062 | 2.26 ± 0.027
NFIIWINSIDTTESSDL [GRR1] | 2.46 ± 0.044 | 2.38 ± 0.047 | 2.61 ± 0.055 | 2.88 ± 0.037
NFKKFNERRKDLAERAS [SMC3] | 1.47 ± 0.061 | 1.97 ± 0.073 | 1.57 ± 0.11 | 2.05 ± 0.097
NFKMLVLLATWNLEKWR [IRR1] | 1.32 ± 0.053 | 1.3 ± 0.071 | 1.5 ± 0.12 | 1.56 ± 0.038
NFLDNCLFENDLQRLKP [ITC1] | 2.61 ± 0.051 | 3.07 ± 0.063 | 2.94 ± 0.048 | 3.06 ± 0.034
NFNKFFKIWHGEINKIC [PCI8] | 1.24 ± 0.049 | 1.13 ± 0.046 | 1.15 ± 0.079 | 1.14 ± 0.059
NFNPDNGFAPISEVMED [FAS1] | 3.3 ± 0.085 | 3.06 ± 0.042 | 3.2 ± 0.044 | 3.17 ± 0.033
NGAGGLMYATDWQMMTS [CSL4] | 3.23 ± 0.15 | 2.93 ± 0.12 |  | 2.99 ± 0.09
NGCIFTLNPKTGHLFLK [PRP8] | 3.24 ± 0.064 | 2.92 ± 0.082 | 2.98 ± 0.083 | 2.97 ± 0.083
NGDEGDDENEPKRKRRL [YOR098C/NUP1] | 3.38 ± 0.11 | 3.24 ± 0.14 | 3.17 ± 0.083 | 3.06 ± 0.071
NGDKMPLKFKLGPLSYQ [YJR042W/NUP85] | 2.94 ± 0.12 | 3.09 ± 0.096 | 3.02 ± 0.096 | 3.27 ± 0.12
NGGKFSKSNLIHNYDSK [RGR1] | 2.4 ± 0.058 | 2.71 ± 0.06 | 3.11 ± 0.047 | 2.7 ± 0.064
NGGLIHVVTREKGPQVC [RPO21] | 2.93 ± 0.14 | 3.09 ± 0.11 | 2.37 ± 0.13 | 2.96 ± 0.12
